From the RNAGym collection of RNA variant scans (doi:10.7554/elife.80360)

B1: CPEB3 Ribozyme (parent)
chain: GGGGGCCACAGCAGAAGCGUUCACGUCGCGGCCCCUGUCAGAUUCUGGUGAAUCUGCGAAUUCUGCUGU

Variants of: B1
Test: self-cleavage, relative activity (ratio to wild type); higher = more cleavage; co-transcriptional

Point of comparison: A59C C63A, self-cleavage 0.43. Against it:
- U62G G65A — lower, 0.285
- A60C U62G — lower, 0.429
- A60G G68U — higher, 0.954
- G58U U69G — higher, 1.03
- U61C C66G — lower, 0.396
- U61C C66U — higher, 0.557
- U61C C66A — lower, 0.375
- C63A G65U — higher, 0.789
- C63A G65A — higher, 0.509
- A59U A60G — higher, 0.56
- A59U A60C — lower, 0.343
- A59U A60U — lower, 0.312
- A59G U69G — higher, 1.07
- A59G U69A — higher, 1.04
- A60G G65A — lower, 0.373
- A60G G65U — lower, 0.412
- U67C G68U — higher, 1.06
- U67C G68A — higher, 0.983
- U62A C66G — higher, 0.458
- U62A C66A — higher, 0.499
- U64G U69A — higher, 0.97
- U64G U69G — higher, 1.02
- U64G U69C — higher, 1.05
- U62G C63U — higher, 0.661
- U62G C63G — lower, 0.334
- U62G C63A — higher, 0.856
- A60G C66A — higher, 0.582
- A60G C66U — higher, 0.818
- A60G C66G — higher, 0.559
- A59G U67A — higher, 0.991
- A59G U67C — higher, 0.976
- A59G U67G — higher, 1.03
- A60U U69G — higher, 0.614
- A60U U69C — higher, 0.754
- U61G G65A — higher, 0.672
- U61G G65U — higher, 0.483
- A60C U67A — lower, 0.358
- A60C U67G — lower, 0.37
- A60C U67C — lower, 0.313
- A60G U61A — higher, 0.632
- A60G U61G — higher, 0.533
- U61A C66A — lower, 0.386
- U61A C66G — higher, 0.44
- G65U G68C — higher, 0.852
- C63U G68A — higher, 0.967
- U62C G65C — higher, 0.488
- C66G — higher, 0.937
- C66A — higher, 0.911
- C66U — higher, 0.99
- U61C G65U — lower, 0.292
- U61C G65C — lower, 0.339
- U64A G68U — higher, 0.922
- U64A G68C — higher, 0.913
- G65U U67G — higher, 0.92
- G65U U67A — higher, 0.848
- G65U U67C — higher, 0.78
- A60G U67C — higher, 0.747
- A60G U67G — higher, 0.902
- U61A G65U — higher, 0.459
- U61A G65C — higher, 0.542
- U61A G65A — higher, 0.519
- U61G — higher, 0.935
- U61C — higher, 0.88
- U61A — higher, 0.96
- C66U U69A — higher, 1.03
- C66U U69C — higher, 1.06
- A60C U61G — lower, 0.3
- A60C U61A — higher, 0.472
- A60C C63G — lower, 0.344
- A60C C63U — higher, 0.468
- U61A U69A — higher, 0.958
- A59U U62G — lower, 0.394
- A59U U62A — higher, 0.536
- A59U U62C — higher, 0.546
- A59C U64A — higher, 0.471
- A59C U64G — higher, 0.633
- C63G C66U — lower, 0.387
- C63G C66G — higher, 0.487
- C63G C66A — lower, 0.248
- A59C G65C — lower, 0.374
- C63G U67G — higher, 0.752
- C63G U67C — higher, 0.569
- C63U U64G — higher, 0.777
- A59G G68U — higher, 1.02
- A59G G68A — higher, 1
- A60G U62G — higher, 0.687
- A60G U62C — higher, 0.436
- U62A G65A — higher, 0.546
- A59G U61C — higher, 0.785
- U67G U69C — higher, 1.1
- U67G U69A — higher, 1.1
- A59C A60G — higher, 0.535
- A59C A60C — lower, 0.38
- G65A U69G — higher, 0.947
- U62G U67A — higher, 0.764
- U61G U67A — higher, 0.841
- U61G U67C — higher, 0.708
- U64A G65A — higher, 0.701
- A60U U67A — higher, 0.454
- A60U U67C — higher, 0.471
- U62C C66A — higher, 0.5
- A59G C66G — higher, 0.893
- A59G C66A — higher, 0.779
- U67A G68A — higher, 1.07
- U67A G68C — higher, 0.955
- U67A G68U — higher, 1.01
- A60C G65C — higher, 0.449
- A60C C66G — higher, 0.456
- A60C C66U — lower, 0.412
- U64G C66U — higher, 0.558
- U64G C66G — higher, 0.442
- U61G U64A — higher, 0.555
- U61G U64G — lower, 0.397
- U62C U67G — higher, 0.865
- U62C U67A — higher, 0.738
- U62C U67C — higher, 0.687
- U61A C63U — higher, 0.721
- U61A C63A — higher, 0.729
- G65U U69C — higher, 0.97
- G65U U69A — higher, 0.835
- A59G U64A — higher, 0.861
- A59G U64C — higher, 0.873
- U61C U64A — lower, 0.322
- U61C U64G — higher, 0.474
- U61C U64C — lower, 0.31
- U61C C63U — lower, 0.425
- U61C C63A — higher, 0.651
- C63A U64C — higher, 0.639
- C63A U64A — higher, 0.62
- C63G G65C — lower, 0.366
- A60U G65A — higher, 0.527
- A60U G65U — the same, 0.43
- C63G U69C — higher, 1.04
- C63G U69A — higher, 0.864
- U62A C63A — higher, 0.822
- U62A C63G — higher, 0.481
- C66G U67A — higher, 0.937
- C66G U67G — higher, 0.909
- A60U U62A — higher, 0.551
- A60U U62C — higher, 0.492
- C63G U64G — higher, 0.471
- U62C U69C — higher, 1.03
- U62C U69G — higher, 0.984
- U62C U69A — higher, 1.01
- A60C U69C — higher, 0.627
- C66G U69C — higher, 1.01
- C66G U69A — higher, 1.02
- C66G U69G — higher, 0.923
- G65C U67G — higher, 0.905
- G65C U67C — higher, 0.905
- U64C U67C — higher, 0.764
- U64C U67A — higher, 0.864
- A59U U61A — higher, 0.443
- A59U U61C — lower, 0.358
- A59U U61G — higher, 0.512
- U61C U69C — higher, 1.02
- U61C U69G — higher, 0.974
- A59C U67A — higher, 0.689
- A59C U67C — higher, 0.806
- A59U U69C — higher, 1.02
- A59U G68C — higher, 0.941
- C63U — higher, 0.991
- C63G — higher, 0.87
- C63A — higher, 0.919
- U61C U67A — higher, 0.741
- U61C U67C — higher, 0.764
